The text below walks through data of the Immune Epitope Database (IEDB).

One assay addresses HLA-A*02:01. The assay is described as follows: IEDB peptide-MHC binding, purified MHC/competitive/radioactivity; ≥ and ≤ were set here for values at or beyond the usual limits of such assays. Particulars: source organism: Bordetella pertussis.
For the sequence KLLHHILPI, the IC50 was found to be 0.312 µM. On the same count and under the same terms, as for EGKMESNKD, the figure is at least 78.1 µM; as for SLFAILSST, 1.42 µM; as for RKMLYLIYV, 5.45 µM.

In another assay the target is HLA-B*07:02. The description is as above. Particulars: source organism: Bordetella pertussis.
As for TVLAAGAGL, the concentration for half-maximal inhibition (IC50) was 69.6 µM.

Take ARRSRVRAL: the IC50 came to 15.8 µM. Same read-out and setting: as for NPYTSRRSV, the figure is 0.274 µM.

A further assay deals with HLA-B*35:01. The description is as above. Particulars: source organism: Bordetella pertussis.
For the sequence EVRADNNFY, the 50% inhibitory concentration (IC50) amounted to 25.6 µM. On the same count and under the same terms, as for ADDPPATVY, the figure is 69.9 µM. Consider PKPKPKPKP, for which the IC50 is 64.9 µM. DPPATVYRY: the half-inhibitory concentration (IC50) worked out at 7.2 µM.

For EPVKLTLTG, the 50% inhibitory concentration (IC50) stood at 13.7 µM.

For a further assay, the target named is HLA-B*44:03. The assay is described as above. Particulars: source organism: Bordetella pertussis.
For TEVYLEHRM, the IC50 turned out to be 2.72 µM. Turning to PGPQPPQPQ, the half-inhibitory concentration (IC50) is 48.6 µM.

For the next assay, the target named is HLA-B*53:01. The description is as above. Particulars: source organism: Bordetella pertussis.
In the case of DPPATVYRY, the IC50 amounted to 52.9 µM.

Another assay concerns the target HLA-B*57:01. Described as above. Particulars: source organism: Bordetella pertussis.
Consider KQADRDFVW, for which the IC50 was 11.3 µM. On the same count and under the same terms, as for LSGEVQRKG, the figure is at least 70.4 µM. For the sequence RVRALSWLL, the IC50 is 2.12 µM. Same read-out and setting: as for TSRRSVASI, the figure is 4.54 µM.

The IC50 is the concentration needed to halve the response being measured.
